# Test results: patent US20180298083A1
# Read-outs that look alike come from different tables or passages of the source.
# How the values were obtained:
# N332A (HIV-1) = experiment: gp120 capture ELISA
# [1] = biological target: monomeric gp120^JRCSF (HIV-1 strain JRCSF) (UniProt P20871); experiment: gp120 capture ELISA
# [2] = biological target: gp120 Resurfaced Stabilized Core (RSC3); experiment: ELISA on coated RSC3
# D167N (HIV-1) = experiment: gp120 capture ELISA
# D279A (HIV-1) = experiment: gp120 capture ELISA
# D368A (HIV-1) = experiment: gp120 capture ELISA
# D457A (HIV-1) = experiment: gp120 capture ELISA
# D474A (HIV-1) = experiment: gp120 capture ELISA
# E370A (HIV-1) = experiment: gp120 capture ELISA
# G366A (HIV-1) = experiment: gp120 capture ELISA
# G367A (HIV-1) = experiment: gp120 capture ELISA
# G471A (HIV-1) = experiment: gp120 capture ELISA
# G472A (HIV-1) = experiment: gp120 capture ELISA
# G473A (HIV-1) = experiment: gp120 capture ELISA
# I371A (HIV-1) = experiment: gp120 capture ELISA
# I467A (HIV-1) = experiment: gp120 capture ELISA
# K282A (HIV-1) = experiment: gp120 capture ELISA
# M373A (HIV-1) = experiment: gp120 capture ELISA
# M475A (HIV-1) = experiment: gp120 capture ELISA
# N197T (HIV-1) = experiment: gp120 capture ELISA
# N262A (HIV-1) = experiment: gp120 capture ELISA
# N280A (HIV-1) = experiment: gp120 capture ELISA
# P369A (HIV-1) = experiment: gp120 capture ELISA
# R469A (HIV-1) = experiment: gp120 capture ELISA
# R476A (HIV-1) = experiment: gp120 capture ELISA
# S365A (HIV-1) = experiment: gp120 capture ELISA
# T283A (HIV-1) = experiment: gp120 capture ELISA
# V372A (HIV-1) = experiment: gp120 capture ELISA
# CentrB, centromere B = experiment: Luminex AtheNA Multi-Lyte ANA test
# Chain of CentrB, centromere B (P07199 2-599): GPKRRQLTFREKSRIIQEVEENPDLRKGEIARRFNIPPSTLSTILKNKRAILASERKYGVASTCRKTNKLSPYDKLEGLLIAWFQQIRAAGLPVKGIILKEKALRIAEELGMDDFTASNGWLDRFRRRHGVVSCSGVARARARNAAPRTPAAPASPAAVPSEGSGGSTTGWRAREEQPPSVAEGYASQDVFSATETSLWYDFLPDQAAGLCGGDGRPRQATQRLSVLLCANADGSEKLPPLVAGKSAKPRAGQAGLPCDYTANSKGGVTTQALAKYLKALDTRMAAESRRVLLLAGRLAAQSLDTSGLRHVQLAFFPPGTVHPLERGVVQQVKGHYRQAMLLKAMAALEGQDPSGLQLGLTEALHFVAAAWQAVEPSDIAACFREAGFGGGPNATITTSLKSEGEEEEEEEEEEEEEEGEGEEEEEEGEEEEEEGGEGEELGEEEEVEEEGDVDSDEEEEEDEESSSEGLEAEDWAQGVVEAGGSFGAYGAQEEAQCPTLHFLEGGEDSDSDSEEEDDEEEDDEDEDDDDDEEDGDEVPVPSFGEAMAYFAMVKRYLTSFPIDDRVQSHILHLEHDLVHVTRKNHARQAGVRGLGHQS
# Histone = experiment: Luminex AtheNA Multi-Lyte ANA test
# Jo1 antigen = experiment: Luminex AtheNA Multi-Lyte ANA test
# RNP, ribonucleoprotein = experiment: Luminex AtheNA Multi-Lyte ANA test
# [3] = biological target: SSA, Sjogren's syndrome antigen A; experiment: Luminex AtheNA Multi-Lyte ANA test
# [4] = biological target: SSB, Sjogren syndrome antigen B (Homo sapiens (Human)) (UniProt P05455); experiment: Luminex AtheNA Multi-Lyte ANA test
# Chain of SSB, Sjogren syndrome antigen B (Homo sapiens (Human)) (P05455 whole entry): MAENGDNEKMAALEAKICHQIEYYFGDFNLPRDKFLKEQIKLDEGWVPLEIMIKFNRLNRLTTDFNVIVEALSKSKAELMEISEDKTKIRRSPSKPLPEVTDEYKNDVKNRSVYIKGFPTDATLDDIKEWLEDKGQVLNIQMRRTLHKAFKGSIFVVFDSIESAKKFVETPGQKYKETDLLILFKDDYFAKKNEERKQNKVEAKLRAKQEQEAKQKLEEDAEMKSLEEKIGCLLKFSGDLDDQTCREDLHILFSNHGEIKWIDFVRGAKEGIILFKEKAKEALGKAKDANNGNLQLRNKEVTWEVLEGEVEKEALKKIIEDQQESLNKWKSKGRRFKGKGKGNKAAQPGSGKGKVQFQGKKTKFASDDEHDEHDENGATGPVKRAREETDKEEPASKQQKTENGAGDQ
# Scl 70, scleroderma 70 = experiment: Luminex AtheNA Multi-Lyte ANA test
# Sm, Smith antigen = experiment: Luminex AtheNA Multi-Lyte ANA test
# 6631.V3.C10 (HIV-1) [5] = biological target: 6631.V3.C10 (HIV-1)
# T250-4 (HIV-1) [6] = biological target: T250-4 (HIV-1)
# [7] = biological target: gp120 of X2088 (HIV-1 strain X2088.c9)
# 6631.V3.C10 (HIV-1) [8] = biological target: 6631.V3.C10 (HIV-1); remark: listed apart in the source
# 6631.V3.C10 (HIV-1) [9] = biological target: 6631.V3.C10 (HIV-1); remark: listed apart in the source
# T250-4 (HIV-1) [10] = biological target: T250-4 (HIV-1); remark: listed apart in the source
# [11] = biological target: gp120 of X2088 (HIV-1 strain X2088.c9); remark: listed apart in the source
substance,measurement,setting,value
2G12 (antibody),Binding affinity relative to WT (%),N332A (HIV-1),3%
same,Binding affinity relative to WT (%),[1],100%
same,EC50 (read off the curve),[2],0.03 µg/mL
3BNC117 (antibody),Binding affinity relative to WT (%),D167N (HIV-1),95%
same,Binding affinity relative to WT (%),D279A (HIV-1),0%
same,Binding affinity relative to WT (%),D368A (HIV-1),16%
same,Binding affinity relative to WT (%),D457A (HIV-1),84%
same,Binding affinity relative to WT (%),D474A (HIV-1),38%
same,Binding affinity relative to WT (%),E370A (HIV-1),31%
same,Binding affinity relative to WT (%),G366A (HIV-1),27%
same,Binding affinity relative to WT (%),G367A (HIV-1),25%
same,Binding affinity relative to WT (%),G471A (HIV-1),164%
same,Binding affinity relative to WT (%),G472A (HIV-1),56%
same,Binding affinity relative to WT (%),G473A (HIV-1),40%
same,Binding affinity relative to WT (%),I371A (HIV-1),40%
same,Binding affinity relative to WT (%),I467A (HIV-1),87%
same,Binding affinity relative to WT (%),K282A (HIV-1),3%
same,Binding affinity relative to WT (%),M373A (HIV-1),133%
same,Binding affinity relative to WT (%),M475A (HIV-1),169%
same,Binding affinity relative to WT (%),N197T (HIV-1),101%
same,Binding affinity relative to WT (%),N262A (HIV-1),33%
same,Binding affinity relative to WT (%),N280A (HIV-1),36%
same,Binding affinity relative to WT (%),N332A (HIV-1),82%
same,Binding affinity relative to WT (%),P369A (HIV-1),75%
same,Binding affinity relative to WT (%),R469A (HIV-1),97%
same,Binding affinity relative to WT (%),R476A (HIV-1),171%
same,Binding affinity relative to WT (%),S365A (HIV-1),90%
same,Binding affinity relative to WT (%),T283A (HIV-1),71%
same,Binding affinity relative to WT (%),V372A (HIV-1),62%
same,Binding affinity relative to WT (%),[1],100%
4E10 (antibody),Luminex reactivity (unit not given),"CentrB, centromere B",3
same,Luminex reactivity (unit not given),Histone,9
same,Luminex reactivity (unit not given),Jo1 antigen,146
same,Luminex reactivity (unit not given),"RNP, ribonucleoprotein",9
same,Luminex reactivity (unit not given),[3],31
same,Luminex reactivity (unit not given),[4],161
same,Luminex reactivity (unit not given),"Scl 70, scleroderma 70",8
same,Luminex reactivity (unit not given),"Sm, Smith antigen",6.6
12A21 (antibody),neutralisation IC50,6631.V3.C10 (HIV-1) [5],2.37 µg/mL
same,neutralisation IC50,CAAN.A2 (HIV-1),0.539 µg/mL
same,neutralisation IC50,T250-4 (HIV-1) [6],> 50 µg/mL
same,neutralisation IC50,[7],> 50 µg/mL
same,Binding affinity relative to WT (%),D167N (HIV-1),108%
same,Binding affinity relative to WT (%),D279A (HIV-1),188%
same,Binding affinity relative to WT (%),D368A (HIV-1),30%
same,Binding affinity relative to WT (%),D457A (HIV-1),23%
same,Binding affinity relative to WT (%),D474A (HIV-1),19%
same,Binding affinity relative to WT (%),E370A (HIV-1),16%
same,Binding affinity relative to WT (%),G366A (HIV-1),6%
same,Binding affinity relative to WT (%),G367A (HIV-1),2%
same,Binding affinity relative to WT (%),G471A (HIV-1),162%
same,Binding affinity relative to WT (%),G472A (HIV-1),97%
same,Binding affinity relative to WT (%),G473A (HIV-1),53%
same,Binding affinity relative to WT (%),I371A (HIV-1),17%
same,Binding affinity relative to WT (%),I467A (HIV-1),49%
same,Binding affinity relative to WT (%),K282A (HIV-1),29%
same,Binding affinity relative to WT (%),M373A (HIV-1),63%
same,Binding affinity relative to WT (%),M475A (HIV-1),76%
same,Binding affinity relative to WT (%),N197T (HIV-1),131%
same,Binding affinity relative to WT (%),N262A (HIV-1),167%
same,Binding affinity relative to WT (%),N280A (HIV-1),174%
same,Binding affinity relative to WT (%),N332A (HIV-1),206%
same,Binding affinity relative to WT (%),P369A (HIV-1),122%
same,Binding affinity relative to WT (%),R469A (HIV-1),66%
same,Binding affinity relative to WT (%),R476A (HIV-1),73%
same,Binding affinity relative to WT (%),S365A (HIV-1),454%
same,Binding affinity relative to WT (%),T283A (HIV-1),68%
same,Binding affinity relative to WT (%),V372A (HIV-1),36%
same,Binding affinity relative to WT (%),[1],100%
12A21 heavy chain with N6 light chain (antibody),neutralisation IC50,CAAN.A2 (HIV-1),11 µg/mL
CD4-Ig (from UniProt P01730 26-203) (Fc fusion; other documents disagree on this pair),Binding affinity relative to WT (%),[1],100%
N6 GGG60-62AHS VRC27 (antibody),neutralisation IC50,6631.V3.C10 (HIV-1) [8],0.089 µg/mL
N6 heavy chain with 12A21 light chain (antibody),neutralisation IC50,6631.V3.C10 (HIV-1) [5],3.11 µg/mL
same,neutralisation IC50,CAAN.A2 (HIV-1),3.71 µg/mL
same,neutralisation IC50,[7],0.314 µg/mL
N6 heavy chain with VRC01 light chain (antibody),neutralisation IC50,6631.V3.C10 (HIV-1) [5],1.04 µg/mL
same,neutralisation IC50,CAAN.A2 (HIV-1),0.211 µg/mL
same,neutralisation IC50,[7],> 50 µg/mL
N6 heavy chain with VRC27 light chain (antibody),neutralisation IC50,6631.V3.C10 (HIV-1) [5],0.285 µg/mL
same,neutralisation IC50,CAAN.A2 (HIV-1),0.278 µg/mL
same,neutralisation IC50,[7],> 50 µg/mL
N6 with CDRH1 of VRC01 (antibody),neutralisation IC50,6631.V3.C10 (HIV-1) [9],> 50 µg/mL
same,neutralisation IC50,T250-4 (HIV-1) [10],> 50 µg/mL
same,neutralisation IC50,[11],2.08 µg/mL
N6 with CDRH1 of VRC27 (antibody),neutralisation IC50,6631.V3.C10 (HIV-1) [8],0.122 µg/mL
N6 with CDRH3 of VRC01 (antibody),neutralisation IC50,T250-4 (HIV-1) [10],4.52 µg/mL
